In article PMC4505822 one finds stoichiometry N data, which are given here for one substance.

The target of the assay is wild-type full-length recombinant human prion protein (human) (UniProt P04156). The assay is described as follows: AFM height measurement with a calibration curve of marker proteins.

The stoichiometry N is a count of units in the complex or per binding partner. With “wild-type full-length recombinant human prion protein (from UniProt P04156 23-231) (natural protein)”, the stoichiometry N was in the range of 11 to 22 monomers.
